# Measured values: PMC8139424
# Target: S2 fragment of the S protein (SARS-CoV-2)
# Assay: SEC
substance,measurement,value
S2 fragment of the S protein (domain or fragment),stoichiometry N,3
